# B1: reslizumab (antibody, V domains shown)
# VH: EVQLVESGGGLVQPGGSLRLSCAVSGLSLTSNSVNWIRQAPGKGLEWVGLIWSNGDTDYNSAIKSRFTISRDTSKSTVYLQMNSLRAEDTAVYYCAREYYGYFDYWGQGTLVTVSS
# VL: DIQMTQSPSSLSASVGDRVTITCLASEGISSYLAWYQQKPGKAPKLLIYGANSLQTGVPSRFSGSGSATDYTLTISSLQPEDFATYYCQQSYKFPNTFGQGTKVEVK
# B2: 4E9V0 (VHH)
# VHH: QVQLVESGGGSVQAGGSLRLSCAASGDFYCMAWFRQAPGKEREGVATIRSGGRSTYYADSVKGRFTISKDNAKDTLYLQMNSLKPEDTAMYYCAVGVDGNCRNYWGQGTQVTVSS
# B3: 2B3 (VHH)
# VHH: QVQLVESGGGSVQAGGSLRLSCAASGNTFSFSTYCMGWFRQSPGKEREGSLATIYDGSTAYAGSVKGRFTISVDNAKNILYLQMNNLKPEDTAMYYCAAAKYCMFWSDPSYWGQGTQVTVSS
# B4: dupilumab (antibody, V domains shown)
# VH: EVQLVESGGGLEQPGGSLRLSCAGSGFTFRDYAMTWVRQAPGKGLEWVSSISGSGGNTYYADSVKGRFTISRDNSKNTLYLQMNSLRAEDTAVYYCAKDRLSITIRPRYYGLDVWGQGTTVTVSS
# VL: DIVMTQSPLSLPVTPGEPASISCRSSQSLLYSIGYNYLDWYLQKSGQSPQLLIYLGSNRASGVPDRFSGSGSGTDFTLKISRVEAEDVGFYYCMQALQTPYTFGQGTKLEIKR
# Assays:
# IL-5 = IL-5 (human, UniProt P05113 20-134); assay: cell-based or functional assay
# IL-4Rα = IL-4Rα (UniProt P24394 26-232, limits assumed); assay: cell-based or functional assay
# IL-5, sequence (P05113 20-134 limits assumed): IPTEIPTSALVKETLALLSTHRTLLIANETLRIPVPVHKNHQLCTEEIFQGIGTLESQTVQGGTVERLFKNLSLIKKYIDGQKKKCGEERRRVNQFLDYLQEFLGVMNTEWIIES
binder,measurement,setting,value
B1,"EC50, 中和IL-5诱导的TF-1细胞增殖",IL-5,0.122 nM
B2,"EC50, 中和IL-4诱导的TF-1细胞增殖",IL-4Rα,0.281 nM
same,"EC50, 中和IL-13诱导的TF-1细胞增殖",IL-4Rα,0.229 nM
B3,"EC50, 中和IL-5诱导的TF-1细胞增殖",IL-5,0.336 nM
B4,"EC50, 中和IL-4诱导的TF-1细胞增殖",IL-4Rα,0.13 nM
same,"EC50, 中和IL-13诱导的TF-1细胞增殖",IL-4Rα,0.178 nM
